Data as given in patent US6998124 (GlaxoSmithKline, dated 2006).

What was measured:
[1] = molecular target: T1, soluble dimeric erythropoietin receptor (EpoRFc) (human, UniProt P19235 25-250); test: BIAcore, mAb captured on rabbit anti-mouse Fc surface, EpoRFc injected at 0.25-6 ug/ml; soluble dimeric EpoRFc
T1 construct: also called Epo-Rec-Fc; not shown: Fc part
T1 sequence (looked up): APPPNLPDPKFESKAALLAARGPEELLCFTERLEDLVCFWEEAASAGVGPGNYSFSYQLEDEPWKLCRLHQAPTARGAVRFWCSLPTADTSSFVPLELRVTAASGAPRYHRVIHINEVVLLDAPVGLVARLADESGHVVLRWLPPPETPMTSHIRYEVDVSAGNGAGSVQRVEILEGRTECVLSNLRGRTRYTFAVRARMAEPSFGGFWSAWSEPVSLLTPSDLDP
Description: (§1) EpoR or EpoRFc diluted in HBS buffer at 0.25–6 ug/ml was then injected for 120 s followed by buffer flow for 240 s and regeneration of the sensor chip surface with an injection of 15 ul 0.1 M phosphoric acid. BIAcore software was used for association and dissociation-phase analysis.

[2] = molecular target: T2, human erythropoietin receptor on the cell surface (human, UniProt P19235 25-508); test: competition with 1 nM 125I-labeled Epo for binding to UT7-Epo cells, 5 hrs at 4 C, cell-bound radioactivity counted; blocked ligand: Epo
T2 construct: whole, on cells; also called wild type EpoR on UT7-Epo cells; cell surface erythropoietin receptors
T2 sequence (looked up): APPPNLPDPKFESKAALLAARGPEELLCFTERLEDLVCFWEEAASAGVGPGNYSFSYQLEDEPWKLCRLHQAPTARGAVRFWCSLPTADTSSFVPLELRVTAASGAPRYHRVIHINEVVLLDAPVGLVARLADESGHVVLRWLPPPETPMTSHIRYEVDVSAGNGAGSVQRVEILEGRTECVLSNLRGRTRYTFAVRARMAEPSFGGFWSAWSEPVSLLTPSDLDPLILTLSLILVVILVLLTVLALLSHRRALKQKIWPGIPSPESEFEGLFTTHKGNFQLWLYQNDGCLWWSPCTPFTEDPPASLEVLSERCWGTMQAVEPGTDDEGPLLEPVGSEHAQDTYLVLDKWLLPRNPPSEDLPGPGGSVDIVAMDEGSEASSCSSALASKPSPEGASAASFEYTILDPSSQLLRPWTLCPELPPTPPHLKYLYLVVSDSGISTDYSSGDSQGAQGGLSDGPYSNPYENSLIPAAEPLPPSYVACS
Description: Following 5 hrs incubation at 4° C., the cells were spun through horse serum, frozen, and the pellets clipped off and radioactivity counted. […] Hematocrit was measured following a single i.v. dose of Hz3G9 at 0.1, 0.5, 1 and 5 mg/kg into cynomolgus macaques.

[3] = molecular target: T1, soluble dimeric erythropoietin receptor …; test: BIAcore, calculated from kass and kdiss; soluble dimeric EpoRFc
Description: as §1

B1: murine monoclonal antibody 3G9 (antibody, V domains shown)
VH: QVQLQQPGAELVKSGASVKLSCKASGSTFTSYWMHWVKQRPGRGLEWIGRIDPNSGGTKDNEKFKSKATLTVDKPSSTAYMQLSSLTSEDSAVYYCARETYYDSSFAYWGQGTLVTVSA
VL: DIVMTQSQKFMSTSVGDRVSVTCKASQNVGTNVAWYQQKPGQSPKALIYSASYRYSGVPDRFTGSGSGTDFTLTISNVQSEDLAEYFCQQYNSYPLTFGAGTKLELKR
modifications: amino terminus of the heavy chain blocked with pyroglutamic acid
notes: Mouse hybridoma antibody; also called 3G9 mAb; Mab 3G9
koff [1]: 0.0019 s⁻¹ | kon [1]: 3e+06 M⁻¹ s⁻¹ | IC50 (read off the curve) [2]: ~1 ng/mL | Kd [3]: 0.6 nM
